For four substances, Kd results are on record in PMC8280646.

For the experiment, the target named is His-tagged hACE2 protein (human) (UniProt Q9BYF1). Description: SPR.

Where two headings read alike, the source gives them in different places.

Chain of His-tagged hACE2 protein (human) (Q9BYF1 18-740): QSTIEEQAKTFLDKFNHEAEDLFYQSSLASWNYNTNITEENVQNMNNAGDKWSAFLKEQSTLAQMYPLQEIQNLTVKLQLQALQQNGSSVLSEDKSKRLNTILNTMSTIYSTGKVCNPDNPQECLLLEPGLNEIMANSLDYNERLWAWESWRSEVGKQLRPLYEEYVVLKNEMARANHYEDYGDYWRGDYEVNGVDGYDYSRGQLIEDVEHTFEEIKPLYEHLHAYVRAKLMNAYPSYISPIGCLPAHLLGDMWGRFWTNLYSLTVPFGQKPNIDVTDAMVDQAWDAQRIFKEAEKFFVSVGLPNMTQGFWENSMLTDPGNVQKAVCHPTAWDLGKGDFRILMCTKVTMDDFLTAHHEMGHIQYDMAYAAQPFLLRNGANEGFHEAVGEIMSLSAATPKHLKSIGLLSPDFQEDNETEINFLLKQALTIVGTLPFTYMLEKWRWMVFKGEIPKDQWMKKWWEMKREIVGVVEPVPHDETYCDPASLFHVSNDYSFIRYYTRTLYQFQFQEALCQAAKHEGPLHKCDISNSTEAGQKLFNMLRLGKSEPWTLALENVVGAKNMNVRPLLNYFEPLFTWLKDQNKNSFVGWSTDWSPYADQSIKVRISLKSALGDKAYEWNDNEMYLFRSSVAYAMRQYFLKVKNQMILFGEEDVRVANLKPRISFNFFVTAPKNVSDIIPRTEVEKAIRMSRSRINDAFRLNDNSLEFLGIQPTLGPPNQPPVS

In turn, Human IFNα-RBD-Fc yielded a Kd of 12.3 nM.
The same measure, in the same setting: in the case of RBD it was 7.98 nM; in that of RBD-Fc, 11.5 nM.
As to “mouse IFNα-Pan-RBD-Fc fusion protein (I-P-R-F) (from UniProt P0DTC2 319-541)”, the Kd (Fc fusion) is 11 nM.

The Kd is the free concentration of one partner at which half of the binding sites on the other are occupied at equilibrium, for simple one-to-one binding.
